Experiment [1] deals with human c-MET on Hs746T human gastric cancer cells (human) (UniProt P08581). In words: flow cytometry on Hs746T cells, 4-parameter fit. On the technique in general: A flow cytometer gives signals particle by particle.
Experiment [2] has as its target Human c-MET, His Tag (Sino Biological, Cat. No. 10692-H08H) (human) (UniProt P08581). In words: ELISA, coated human c-MET His Tag, 4-parameter fit. A general note: An ELISA detects its analyte on a solid surface through an enzyme-linked reagent.
Experiment [3] has as its target human c-MET on Hs746T human gastric cancer cells (human) (UniProt P08581). In words: cell-based or functional assay.
Experiment [4] shares this target. In words: cell-based or functional assay. This is another data set of the same source.
For experiment [5] the target is unchanged. In words: flow cytometry on Hs746T cells, PE secondary antibody, 4-parameter fit.
In experiment [6] the target is human c-MET antigen (human) (UniProt P08581). In words: ELISA OD450 of clone supernatant divided by PBS blank.
Experiment [7] shares this target. In words: ELISA, E. coli lysate supernatant of clone on human c-MET antigen.

The text below walks through data of patent publication EP4763865A1.

Read-outs that look alike come from different tables or passages of the source.

With Isotype (antibody), in experiment [1], the Bottom is -124 MFI, the EC50 was 9.74 µg/mL and the Top was 722 MFI. In experiment [2], this molecule registered a Bottom of 0.0582 OD450, an EC50 of 4.09 µg/mL and a Top of 0.0795 OD450.

In experiment [3], MHB07-PC (Telisotuzumab) (antibody) gave a Fab-ZAP endocytosis-mediated cell killing, Bottom (killing rate %) of 49.7%; a Fab-ZAP endocytosis-mediated cell killing, EC50 of 19.9 pM; a Fab-ZAP endocytosis-mediated cell killing, Top (killing rate %) of 83.2%. Moreover, in experiment [4], the Fab-ZAP endocytosis-mediated cell killing, Bottom (killing rate %) amounted to 15.4%; the Fab-ZAP endocytosis-mediated cell killing, EC50 worked out at 12.8 pM; the Fab-ZAP endocytosis-mediated cell killing, Top (killing rate %) was 98.3%. In experiment [1], this molecule displayed a Bottom of 610 MFI, an EC50 of 0.788 µg/mL and a Top of 8340 MFI. In experiment [2], this molecule registered a Bottom of 0.0407 OD450, an EC50 of 0.00925 µg/mL and a Top of 2.02 OD450. In experiment [5], this molecule showed a Bottom of 18000 MFI, a 50% effective concentration (EC50) of 0.31 µg/mL and a Top of 647000 MFI.

B1: MH172-HGF R-7-2-92 (VHH)
VHH: QLQLVESGGGLVQAGGSLRLSCAASGRITNTYVMGWFRQAPGKERELQAAITWTVGSTYYVDSVKGRFTISRDNAKNTLYLQMNSLKPEDTAVYYCAASRFSAWPPRGTLGEWNSWGQGTQVTVSS
For B1, the Unique seq/PBS (fold over PBS) in experiment [6] worked out at 42.3. For the same molecule, in experiment [7], the OD450 stood at 3.26 OD450.

As a reminder, the EC50 is the concentration needed to bring the measured effect to its halfway point.
